{"source": "paper PMC4169579", "about": "(2014)", "binders": {"B1": {"name": "12-amino acid cyclic peptide B2 (without C-terminal amidation) (peptide)", "peptide": "CVFAHNYDYLVC-OH", "modifications": "disulfide 1-12; N-terminus assumed", "SMILES": "CC(C)C[C@@H]1NC(=O)[C@H](Cc2ccc(O)cc2)NC(=O)[C@H](CC(=O)O)NC(=O)[C@H](Cc2ccc(O)cc2)NC(=O)[C@H](CC(N)=O)NC(=O)[C@H](Cc2c[nH]cn2)NC(=O)[C@H](C)NC(=O)[C@H](Cc2ccccc2)NC(=O)[C@H](C(C)C)NC(=O)[C@@H](N)CSSC[C@@H](C(=O)O)NC(=O)[C@H](C(C)C)NC1=O"}}, "target": "Prostate-specific antigen (PSA or kallikrein-related peptidase-3, KLK3), major form of active PSA (isoform … (human, UniProt P07288 25-261))", "sequence (P07288 25-261)": "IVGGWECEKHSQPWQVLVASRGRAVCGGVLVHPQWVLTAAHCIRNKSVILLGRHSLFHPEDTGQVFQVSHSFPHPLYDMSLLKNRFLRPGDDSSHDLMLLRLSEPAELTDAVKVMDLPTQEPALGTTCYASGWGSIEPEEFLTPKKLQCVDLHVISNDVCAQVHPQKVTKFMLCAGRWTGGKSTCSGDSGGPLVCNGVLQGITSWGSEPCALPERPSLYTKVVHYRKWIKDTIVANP", "assay": "SPR", "note": "Positions of bridges follow the written chain, without caps; N, C: chain ends. No end group written: not given here.", "data": [{"binder": "B1", "values": [{"measurement": "Kd", "value": 56.1, "unit": "µM"}]}]}
